The values below come from patent US20040018971A1.

For assay [1], the target named is HLA-B*5301 (human). Nature of the assay: competition vs 125I-labeled standard peptide, purified HLA. The conditions noted are these: remark: other sources report otherwise.
The target of assay [2] is HLA-B*5401 (human). The assay is described as above. The conditions noted are these: remark: other sources report otherwise.
For assay [3], the target named is T1, HLA-DR1 (DRB1*0101) (human).
T1 chain 1: not shown
T1 chain 2: not shown
Nature of the assay: competition binding assay, purified HLA, 125I-labelled probe peptide, gel filtration. The conditions noted are these: remark: other sources report otherwise.

The target of assay [4] is T2, HLA-DR2w2β2 (DRB5*0101) (human).
T2 chain 1: not shown
T2 chain 2: not shown
The assay is described as above. The conditions noted are these: remark: other sources report otherwise.

In assay [5] the target is T3, HLA-DR3 (DRB1*0301) (human).
T3 chain 1: not shown
T3 chain 2: not shown
The assay is described as above. Conditions: remark: other sources report otherwise.

Assay [6] concerns the target T4, HLA-DR5w11 (DRB1*1101) (human).
T4 chain 1: not shown
T4 chain 2: not shown
The description is as above. The conditions noted are these: remark: other sources report otherwise.

The target in assay [7] is T5, HLA-DR8w2 (DRB1*0802) (human).
T5 chain 1: not shown
T5 chain 2: not shown
Described as above. The conditions noted are these: remark: other sources report otherwise.

In assay [8] the target is T6, HLA-DRB1*0101 (human).
T6 chain 1: not shown
T6 chain 2: not shown
Nature of the assay: competition with 125I probe peptide, purified HLA. Conditions: remark: other sources report otherwise.

Assay [9] deals with T7, HLA-DRB1*0701 (human).
T7 chain 1: not shown
T7 chain 2: not shown
The assay can be described thus: competition with 125I probe peptide, purified HLA. Conditions: remark: other sources report otherwise.

The target of assay [10] is T6, HLA-DRB1*0101 (human). Nature of the assay: inhibition of 125I probe peptide binding to purified HLA-DR, gel filtration. Conditions: remark: other sources report otherwise.
The target in assay [11] is T7, HLA-DRB1*0701 (human). The assay is described as above. The conditions noted are these: remark: other sources report otherwise.
The target of assay [12] is T8, HLA-DR2w2β1 (DRB1*1501) (human).
T8 chain 1: not shown
T8 chain 2: not shown
Nature of the assay: competition binding assay, purified HLA, 125I-labelled probe peptide, gel filtration. The conditions noted are these: remark: other sources report otherwise.

Assay [13] has as its target T9, HLA-DR6w19 (DRB1*1302) (human).
T9 chain 1: not shown
T9 chain 2: not shown
Described as above. Conditions: remark: other sources report otherwise.

The target in assay [14] is T10, HLA-DR3 (human).
T10 chain 1: not shown
T10 chain 2: not shown
Nature of the assay: competitive inhibition of 125I-labeled probe peptide binding to purified HLA-DR3. The conditions noted are these: remark: other sources report otherwise.

Assay [15] concerns the target T11, HLA-DRB1*1302 (human).
T11 chain 1: not shown
T11 chain 2: not shown
The assay can be described thus: inhibition of 125I probe peptide binding to purified HLA-DR, gel filtration. Conditions: remark: other sources report otherwise.

In assay [16] the target is HLA-A*0201 (human). Nature of the assay: competition with 125I probe peptide for purified HLA. Conditions: remark: other sources report otherwise.
The target in assay [17] is HLA-A*6802 (human). The assay can be described thus: competition for purified HLA vs 125I-labelled probe peptide, gel filtration. Conditions: remark: other sources report otherwise.
For assay [18], the target named is HLA-A*6802 (human). The assay can be described thus: competition with 125I-labelled probe peptide for purified HLA, gel filtration. The conditions noted are these: remark: other sources report otherwise.
The target of assay [19] is HLA-A*0201 (human). The assay can be described thus: competitive inhibition of 125I-labeled probe peptide binding to purified HLA-A*0201. Conditions: remark: other sources report otherwise.
Assay [20] concerns the target T12, HLA-DRB1*1101 (human).
T12 chain 1: not shown
T12 chain 2: not shown
The assay can be described thus: inhibition of 125I probe peptide binding to purified HLA-DR, gel filtration. Conditions: remark: other sources report otherwise.

Assay [21] concerns the target T12, HLA-DRB1*1101 (human). The assay can be described thus: competition with 125I-labelled standard peptide, purified HLA-DR, gel filtration. Conditions: remark: other sources report otherwise.
Assay [22] concerns the target HLA-A*0202 (human). The assay can be described thus: competition with 125I probe peptide for purified HLA. Conditions: remark: other sources report otherwise.
For assay [23], the target named is HLA-A*6802 (human). Described as above. The conditions noted are these: remark: other sources report otherwise.
In assay [24] the target is T13, HLA-DR4w4 (DRB1*0401) (human).
T13 chain 1: not shown
T13 chain 2: not shown
Nature of the assay: competition with 125I-labelled probe peptide on purified HLA-DR, gel filtration; IC50 of standard peptide / IC50 of test peptide. The conditions noted are these: remark: other sources report otherwise.

In assay [25] the target is T14, HLA-DR7 (DRB1*0701) (human).
T14 chain 1: not shown
T14 chain 2: not shown
The assay is described as above. Conditions: remark: other sources report otherwise.

Assay [26] concerns the target HLA-A*0101 (human). Nature of the assay: competition with 125I-labelled probe peptide for purified HLA-A*0101, gel filtration. Conditions: remark: other sources report otherwise; scale: ratio.
In assay [27] the target is HLA-A*0101 (purified HLA class I molecule) (human). The assay can be described thus: competition with 125I-labelled standard peptide on purified HLA-A*0101, gel filtration. Conditions: remark: other sources report otherwise.
The target of assay [28] is HLA-A*1101 (human). The assay can be described thus: competitive inhibition of 125I-labeled probe peptide binding to purified HLA-A*1101, gel filtration. The conditions noted are these: remark: other sources report otherwise; scale: ratio.
In assay [29] the target is HLA-A*0101 (human). Nature of the assay: competition with 125I-labelled probe peptide for purified HLA-A*0101, gel filtration; relative to standard peptide. The conditions noted are these: remark: other sources report otherwise.
Assay [30] deals with T6, HLA-DRB1*0101 (human). The assay can be described thus: competition with 125I-labelled standard peptide, purified HLA-DR, gel filtration. The conditions noted are these: remark: other sources report otherwise.
In assay [31] the target is HLA-A*1101 (human). The assay can be described thus: inhibition of 125I-labelled probe peptide binding to purified HLA-A*1101, gel filtration. Conditions: remark: other sources report otherwise.
In assay [32] the target is HLA-A*0301 (human). Nature of the assay: inhibition of 125I-labelled probe peptide binding to purified HLA-A*0301, gel filtration; ratio to standard peptide 941.12 ([..], 11 nM). The conditions noted are these: remark: other sources report otherwise.
Assay [33] deals with HLA-A*0201 (human). The assay can be described thus: competition for purified HLA vs 125I-labelled probe peptide, gel filtration. Conditions: remark: other sources report otherwise.
In assay [34] the target is HLA-A*0201 (human). The assay can be described thus: competition with 125I-labelled probe peptide for purified HLA, gel filtration. Conditions: remark: other sources report otherwise.
Assay [35] deals with HLA-A*0202 (human). The assay is described as above. The conditions noted are these: remark: other sources report otherwise.
Assay [36] has as its target HLA-A*0203 (human). Described as above. The conditions noted are these: remark: other sources report otherwise.
Assay [37] deals with HLA-A*0206 (human). The assay is described as above. The conditions noted are these: remark: other sources report otherwise.
Assay [38] concerns the target HLA-A*1101 (human). Nature of the assay: competition with 125I-labelled probe peptide for purified HLA-A*1101, gel filtration; standard peptide 940.06 [..] (6.0 nM). Conditions: remark: other sources report otherwise; scale: ratio.
In assay [39] the target is HLA-A*0301 (human). Nature of the assay: inhibition of 125I-labelled probe peptide binding to purified HLA-A*0301, gel filtration; ratio to standard peptide 941.12 [..] (11 nM). The conditions noted are these: remark: other sources report otherwise.
For assay [40], the target named is HLA-A*0101 (human). The assay can be described thus: competition with 125I-labelled probe peptide for purified HLA-A*0101, gel filtration; ratio = IC50 of standard peptide 944.02 / IC50 of test peptide. Conditions: remark: other sources report otherwise.
The target in assay [41] is HLA-A*3101 (human). The assay can be described thus: competition with 125I-labelled standard peptide for purified HLA; gel filtration. Conditions: remark: other sources report otherwise.
In assay [42] the target is HLA-B*0702 (human). The assay can be described thus: competition with 125I-labelled probe peptide for purified HLA, gel filtration. Conditions: scale: ratio.

In the case of KPYDGIPA [Her2/neu.921, 8-mer], the IC50 in [1] amounted to 490 nM; in [2], 29 nM.

Take WDQLFRNPHQALLHT [HER2/neu peptide … (position 482)]: the relative binding ratio (ratio to standard peptide) in assay [3] was -0.0001; in [4], -0.0007; in assay [5] it was 0.9; in assay [6], -0.0008; in [7], -0.0009.

As for LSVFQNLQVIRGRIL [Her2/neu.422], the IC50 in assay [8] was 28 nM; in assay [9], 86 nM; in assay [10], 28 nM; in [11], 86 nM.

For the molecule CWMIDSECRPRFREL [HER2/neu peptide … (position 958)], the relative binding ratio (ratio to standard peptide) in assay [12] was -0.0006; in assay [6], -0.0008; in [13] it was -0.0001.

With WDQLFRNPHQALLHT [Her2/neu.482], the IC50 in assay [14] was < 1000 nM.

Take ETELRKVKVLGSGAF [Her2/neu.717]: the concentration for half-maximal inhibition (IC50) in assay [15] stood at 2500 nM.

Molecule VMAGVGSPYV [Her2/neu.773 …] registered an IC50 in assay [16] of 200 nM.

ASPLTSIISAVVGIL [Her2/neu.648] showed an IC50 in assay [15] of 73 nM.

On to VVLGVVFGI [Her2/neu.665], for which the IC50 in [17] was 2000 nM; in assay [18], 2000 nM; in assay [19], < 500 nM.

For the molecule VLGVVFGILIKRRQQ [Her2/neu.666], the IC50 in [20] and in assay [21] was 43 nM throughout.

For the molecule QLFEDNYAL [Her2/neu.106 (9-mer) …], the IC50 in [22] came to 226 nM; in assay [23], 2100 nM.

As for GVTVWELMTFGAKPY [HER2/neu peptide … (position 909)], the relative binding ratio in [24] worked out at 0.033; in assay [25] it was 0.017.

Turning to CMQIAKGMSY [HER2/neu peptide, position 826, 10 amino acids], the relative binding ratio in assay [26] was found to be 0.3; in assay [28], 0.0001. Moreover, in assay [27], the relative binding ratio (IC50 of standard peptide / IC50 of test peptide) came to 0.3. Besides, the relative binding ratio (IC50 of standard peptide / IC50 of test peptide) (relative binding ratio) in [29] was determined as 0.3.

With VWELMTFGAKPYDGI [Her2/neu.912], the IC50 in assay [8] is 58 nM; in assay [10], 58 nM; in assay [20] it was 3700 nM; in assay [30], 58 nM; in [21], 3700 nM.

Consider FSPAFDNLYY [HER2/neu peptide, position 1213, 10 amino acids], for which, in [26], the relative binding ratio turned out to be 5.5. In addition, the figures for the relative binding ratio (IC50 of standard peptide / IC50 of test peptide) in assay [27] and in assay [32] were 5.5 and 0.0005, respectively. Also, the relative binding ratio (IC50 of standard peptide / IC50 of test peptide) (relative binding ratio) in assay [31] is 0.001; in assay [29], 5.5.

As for TVQLVTQLMPYGCLL [Her2/neu.793], the IC50 turned out to be 22 nM in assay [8], 2500 nM in [9], 22 nM in assay [10] and 2500 nM in [11].

On to VMAGVGSPYV [Her2/neu.773], for which the 50% inhibitory concentration (IC50) in assay [33] is 200 nM; in assay [19], < 500 nM.

Regarding VLLGVVFGV [Her2/neu.665L2V9], the concentration for half-maximal inhibition (IC50) in [34] stood at 2.4 nM; in assay [35], 17 nM; in assay [36] it was 14 nM; in [37] it was 6 nM; in [18], 8000 nM.

As to LLDIDETEY [HER2/neu peptide, position 869, 9 amino acids], the results for the relative binding ratio in assay [26], in assay [38] and in [40] were 7.6, 0.0001 and 7.6, respectively. Moreover, the relative binding ratio (IC50 of standard peptide / IC50 of test peptide) (relative binding ratio) in assay [29] was determined as 7.6. The relative binding ratio (IC50 of standard peptide / IC50 of test peptide) in assay [39] came to 0.0003.

LVARNVLVK (modifications not checked) [Her2/neu.846.V2] had an IC50 in assay [41] of 9000 nM.

As for LLDHVRENR [Her2/neu.806], the 50% inhibitory concentration (IC50) in assay [41] was determined as 500 nM.

With LPQPPICTIDV (modifications not checked) [HER2/neu peptide, position 941, 11 amino acids], the relative binding ratio in assay [42] was 0.0032.

For GPKHSDCLA [HER2/neu peptide, position 246, 9 amino acids], the relative binding ratio in assay [42] (remark: other sources report otherwise) was determined as 0.0001.
